T1: TTHA1953 (Thermus thermophilus HB8, UniProt Q5SGX7 1-93)
T1 sequence: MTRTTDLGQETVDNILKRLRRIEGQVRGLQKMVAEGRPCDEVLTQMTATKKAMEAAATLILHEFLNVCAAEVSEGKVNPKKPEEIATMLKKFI


Columns and labels:
[1] = target: T1, TTHA1953; test: BLI; 1 mM DTT; BLI: 20 mM Tris pH 7.5, 100 mM NaCl, 1 mM EDTA, 0.05% Tween-20, 1 mM DTT, 37 C; REPSA: 1x CutSmart, 1 mM DTT, 55 C 20 min then 37 C (REPA details not in materia); settings: protein: recombinant; chain copies: 8; label: 5' biotin on ST2R strand; blunt
[2] = target: T1, TTHA1953; test: as above; settings: protein: recombinant, chain copies: 8, blunt
[3] = target: the molecule itself; test: native gel or EMSA; adaptation of a Ferguson plot; apparent weight of the TTHA1953 complex bound to its consensus-sequence DNA (Fig. S3)
[4] = target: the molecule itself; test: non-reducing SDS-PAGE; 2 μg recombinant TTHA1953 treated with buffer, 10 mM CuCl2 or H2O2 for 20 min; Laemmli buffer with or without 350 mM β-mercaptoethanol; Coomassie staining
[5] = label: 5' biotin on ST2R strand

Binder | Kd fold-change relative to consensus [1] | binding result [2, 5] | further results
ST2_1953_mt8 (spacer -1) (dsDNA) DNA 1: CTAGGAATTCGTGCAGAGGTGATACTATACCTGGTATGGTACATCCCTCCAGAAGCTTGGAC DNA 2: GTCCAAGCTTCTGGAGGGATGTACCATACCAGGTATAGTATCACCTCTGCACGAATTCCTAG | ~15 fold higher Kd than consensus | – | –
ST2_1953_mt7 (spacer +1) (dsDNA) DNA 1: CTAGGAATTCGTGCAGAGGTGATACTATACCTCTGGTATGGTACATCCCTCCAGAAGCTTGGAC DNA 2: GTCCAAGCTTCTGGAGGGATGTACCATACCAGAGGTATAGTATCACCTCTGCACGAATTCCTAG | ~10 fold higher Kd than consensus | – | –
Control (dsDNA) DNA 1: CCTCTCTATGGGCAGTCGGTGATCTAGGAATTCGTGCAGAGGTGACGTCATAGAATTCGCATCCCTCCAGAAGCTTGGAC DNA 2: GTCCAAGCTTCTGGAGGGATGCGAATTCTATGACGTCACCTCTGCACGAATTCCTAGATCACCGACTGCCCATAGAGAGG | – | – | binding result ([2]; label: 5' IRDye800 on ControlL strand (REPA)): no binding
TTHA1953, CsoR-like protein from Thermus thermophilus HB8 (natural protein, UniProt Q5SGX7 1-93, looked up, TTHA1953, CsoR-like protein of Thermus thermophilus HB8; expression vector TEx04A02 bought from RIKEN BioResource Research Center; has two cysteines (C39, C68); No tag is mentioned; Estimated homo-octamer weight 83 kDa, so about 10 kDa a chain; also called CsoR family transcriptional regulator; source: E. coli Rosetta 2 (DE3), purified (1 M NaCl extraction of the pellet after sonication, 70 °C …)) MTRTTDLGQETVDNILKRLRRIEGQVRGLQKMVAEGRPCDEVLTQMTATKKAMEAAATLILHEFLNVCAAEVSEGKVNPKKPEEIATMLKKFI | – | – | stoichiometry N [3]: 8; stoichiometry N [4]: 2
ST2_1953_mt9 (dsDNA) DNA 1: CTAGGAATTCGTGCAGAGGTGAGCTTATACCTTGTGCTGGTACATCCCTCCAGAAGCTTGGAC DNA 2: GTCCAAGCTTCTGGAGGGATGTACCAGCACAAGGTATAAGCTCACCTCTGCACGAATTCCTAG | – | no binding | –
ST2_1953_mt10 (dsDNA) DNA 1: CTAGGAATTCGTGCAGAGGTGAGCTTAGCTCTTGGTATGGTACATCCCTCCAGAAGCTTGGAC DNA 2: GTCCAAGCTTCTGGAGGGATGTACCATACCAAGAGCTAAGCTCACCTCTGCACGAATTCCTAG | – | no binding | –

Reference: paper PMC10318464, “A CsoR family transcriptional regulator, TTHA1953, controls the sulfur oxidation pathway in Thermus thermophilus HB8” (The Journal of Biological Chemistry, 2023)
